Here are results for 1 protein from paper doi:10.1101/2023.05.03.539133 (bioRxiv, 2023).

The data set “SEC” concerns the molecule itself. Briefly: SEC. Background: In gel filtration, larger molecules generally elute earlier.
The data set “AUC” deals with the molecule itself. Briefly: AUC.

B1: inner membrane cytochrome c ImcH from Geobacter sulfurreducens (recombinant, C-terminal 6x His-tag) (natural protein, UniProt Q747K6 1-507, looked up)
chain: MTLRKTAGYLWNPISLIGFLLAVVATGLIIAFIAMEMITGIDHPYIGLLVYFAFPGMLILGLILVPIGAWRVRNQRRTEVPEEVPPYPRVDFNDPHKRRLFIFFVLASVIFVLIVSVASILGFEFTESTTFCGELCHVVMEPEHKAWQGSPHARVKCVECHVGPGAEWYVKAKLSGLRQVWAVLTHSYHFPIATPIENLRPARDTCEQCHWPEKFYSGRQRVFYHYAPNKENTPREINMLIKIGGTPKSPHAMGIHWHIGTEVTYIARDRKRLDIPYVAVKQKDGSIVEYMDTEKPLTREEIAKAEKRRMDCIDCHNRPTHIYRSPAREMDEHIVSGQIDAGLPYIKKVAVEILEQPYKSKEEAHAAIEAKLPEYYAKNFPEVAKVKAAAINQAVAHVKDIYSRNFFPRMKVTWSTYPNHIGHFYTPGCFRCHDGKHKTSTGKIISKDCNMCHEMIGQKGENIPEGKVVKEFVHPADIGDALYNVNCSDCHMAAAEDSAGGEGPGKH
modifications: seven c-type hemes (CXXCH heme binding motifs)
The term stoichiometry N denotes a count of units in the complex or per binding partner. B1: the “stoichiometry N” value in the data set “SEC” was determined as 2; in the data set “AUC” it was 4.
